Results from patent US20100150918A1 (MICROMET, published 2010).

T1: 1-27 CD3-EpCAM, swine 27 mer (domestic swine (Sus scrofa); cynomolgus)
T1 construct: Negative control, on transfected cells; also called 1-27 N-terminal CD3 epsilon of swine fused to cynomolgus EpCAM
T1 chain: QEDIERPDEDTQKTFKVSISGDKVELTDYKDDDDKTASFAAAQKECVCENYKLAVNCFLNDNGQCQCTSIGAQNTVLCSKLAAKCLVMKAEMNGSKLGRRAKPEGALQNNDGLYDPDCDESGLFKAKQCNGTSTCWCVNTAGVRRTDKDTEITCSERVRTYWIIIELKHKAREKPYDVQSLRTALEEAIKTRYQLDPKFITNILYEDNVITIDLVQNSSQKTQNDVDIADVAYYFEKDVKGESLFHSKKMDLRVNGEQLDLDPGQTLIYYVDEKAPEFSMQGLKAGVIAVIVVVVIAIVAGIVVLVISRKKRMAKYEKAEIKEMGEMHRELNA

T2: 1-27 CD3-EpCAM, human 27 mer (human; cynomolgus)
T2 construct: On transfected cells; also called N-terminal amino acids 1-27 of human CD3 epsilon fused to Flag tagged cynomolgus EpCAM
T2 chain: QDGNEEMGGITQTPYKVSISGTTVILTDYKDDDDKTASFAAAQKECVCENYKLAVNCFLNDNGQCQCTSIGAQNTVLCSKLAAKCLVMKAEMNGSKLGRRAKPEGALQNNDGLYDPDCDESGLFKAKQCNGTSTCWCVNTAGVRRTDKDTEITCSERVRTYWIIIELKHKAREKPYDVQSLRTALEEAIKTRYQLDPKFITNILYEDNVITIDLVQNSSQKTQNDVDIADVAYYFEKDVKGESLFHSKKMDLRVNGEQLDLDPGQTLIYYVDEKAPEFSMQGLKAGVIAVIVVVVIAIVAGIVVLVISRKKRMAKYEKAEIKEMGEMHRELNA


How the values were obtained:
[1] = target: T3, human CD3 (native, on HPB-ALL cells or human PBMC) (human, UniProt P07766 23-207); test: FACS HPB-ALL
T3 construct: whole, on cells; Other chains of the CD3/TCR complex are present on the cells; also called human CD3 epsilon; native CD3 on intact T cells
T3 sequence (P07766 23-207): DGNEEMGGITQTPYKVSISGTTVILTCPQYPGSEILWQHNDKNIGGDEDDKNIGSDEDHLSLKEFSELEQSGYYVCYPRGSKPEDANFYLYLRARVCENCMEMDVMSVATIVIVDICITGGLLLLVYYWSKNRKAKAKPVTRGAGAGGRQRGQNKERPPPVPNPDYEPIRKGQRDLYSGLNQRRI

1-27 CD3-Fc [2] = target: T4, 1-27 CD3-Fc (human); test: SPR (Biacore), 1-27 CD3-Fc immobilised
T4 construct: also called 27 aa huCD3E; human CD3 epsilon (aa 1-27)-Fc fusion protein

[3] = target: T1, 1-27 CD3-EpCAM, swine 27 mer; test: FACS on 293-HEK transfectants
1-27 CD3-Fc [4] = target: T4, 1-27 CD3-Fc; test: ELISA, captured 1-27 CD3-Fc
[5] = target: T2, 1-27 CD3-EpCAM, human 27 mer; test: FACS 293-HEK transfectant

Binder	Kd (1-27 CD3-Fc [2])	binding result (1-27 CD3-Fc [4])	other results
MCSP-G4 HLP × E2M HLP (bispecific antibody) QVQLVQSGAEVKRPGASMKVSCKASGYTFTNYYIHWVRQAPGQGLEWMGWINPNSGATNYAQKFQGRVTMTRDTSTSTVYMELSSLRSEDTAVYYCAKSWVSWFASWGQGTLVTVSSGGGGSGGGGSGGGGSELVMTQSPDSLAVSLGERATINCKSSQSVLNSSNNRNYLAWYQQKPGQPPKLLIYWASTRESGVPDRFSGSGSGTDFTLTISGLQAEDVAVYYCQQHYSTPFTFGPGTKVDIKSGGGGSEVQLLESGGGLVQPGGSLKLSCAASGFTFNGYAMNWVRQAPGKGLEWVARIRSKYNNYATYYADSVKERFTISRDDSKNTAYLQMNNLKTEDTAVYYCVRHRNFGNSYLSWFAYWGQGTLVTVSSGGGGSGGGGSGGGGSELVVTQEPSLTVSPGGTVTLTCRSSTGAVTSGYYPNWVQQKPGQAPRGLIGATDMRPSGTPARFSGSLLGGKAALTLSGVQPEDEAEYYCALWYSNRWVFGGGTKLTVL			binding result [1]: binds
EGFR-21-63 LH × A2J HLP (bispecific antibody, also called EGFR LH × A2J HLP) DIVLTQSPASLPVSLGQRATISCRASQSVSSSTYSYIHWYQQKPGQPPKLLITYASNLESGVPARFSGSGSGTDFTLDIHPVEEDDSSTYYCQHSWEIPFTFGSGTKLEIKGGGGSGGGGSGGGGSQVQLQQSGPDLVKPGASVKMSCKASGHTFTDCVIIWVKQRAGQGLEWIGQIYPGTGRSYYNEIFKGKATLTADKSSNTVHIQLSSLTSEDSAVYFCALSTLIHGTWFSYWGQGTLVTVSSGGGGSEVQLLESGGGLVQPGGSLKLSCAASGFTFNVYAMNWVRQAPGKGLEWVARIRSKYNNYATYYADSVKKRFTISRDDSKNTAYLQMNNLKTEDTAVYYCVRHGNFGNSYLSWWAYWGQGTLVTVSSGGGGSGGGGSGGGGSELVVTQEPSLTVSPGGTVTLTCRSSTGAVTSGYYPNWVQQKPGQAPRGLIGATDMRPSGTPARFSGSLLGGKAALTLSGVQPEDEAEYYCALWYSNRWVFGGGTKLTVL	249 nM		
EGFR-21-63 LH × E2M HLP (bispecific antibody, also called EGFR LH × E2M HLP) DIVLTQSPASLPVSLGQRATISCRASQSVSSSTYSYIHWYQQKPGQPPKLLITYASNLESGVPARFSGSGSGTDFTLDIHPVEEDDSSTYYCQHSWEIPFTFGSGTKLEIKGGGGSGGGGSGGGGSQVQLQQSGPDLVKPGASVKMSCKASGHTFTDCVIIWVKQRAGQGLEWIGQIYPGTGRSYYNEIFKGKATLTADKSSNTVHIQLSSLTSEDSAVYFCALSTLIHGTWFSYWGQGTLVTVSSGGGGSEVQLLESGGGLVQPGGSLKLSCAASGFTFNGYAMNWVRQAPGKGLEWVARIRSKYNNYATYYADSVKERFTISRDDSKNTAYLQMNNLKTEDTAVYYCVRHRNFGNSYLSWFAYWGQGTLVTVSSGGGGSGGGGSGGGGSELVVTQEPSLTVSPGGTVTLTCRSSTGAVTSGYYPNWVQQKPGQAPRGLIGATDMRPSGTPARFSGSLLGGKAALTLSGVQPEDEAEYYCALWYSNRWVFGGGTKLTVL	2460 nM		
E2M HLP (scFv, crude periplasmic preparation, Flag and His6 tagged) scFv: EVQLLESGGGLVQPGGSLKLSCAASGFTFNGYAMNWVRQAPGKGLEWVARIRSKYNNYATYYADSVKERFTISRDDSKNTAYLQMNNLKTEDTAVYYCVRHRNFGNSYLSWFAYWGQGTLVTVSSGGGGSGGGGSGGGGSELVVTQEPSLTVSPGGTVTLTCRSSTGAVTSGYYPNWVQQKPGQAPRGLIGATDMRPSGTPARFSGSLLGGKAALTLSGVQPEDEAEYYCALWYSNRWVFGGGTKLTVL		binds	binding result [3]: no binding; binding result [5]: binds
A2J HLP (scFv, crude periplasmic preparation, Flag and His6 tagged) scFv: EVQLLESGGGLVQPGGSLKLSCAASGFTFNVYAMNWVRQAPGKGLEWVARIRSKYNNYATYYADSVKKRFTISRDDSKNTAYLQMNNLKTEDTAVYYCVRHGNFGNSYLSWWAYWGQGTLVTVSSGGGGSGGGGSGGGGSELVVTQEPSLTVSPGGTVTLTCRSSTGAVTSGYYPNWVQQKPGQAPRGLIGATDMRPSGTPARFSGSLLGGKAALTLSGVQPEDEAEYYCALWYSNRWVFGGGTKLTVL		binds	
